Experimental data as given in patent CN113321730A.

Biological target: T1, hCLDN18.2 (human) (UniProt P56856)
T1 sequence (looked up): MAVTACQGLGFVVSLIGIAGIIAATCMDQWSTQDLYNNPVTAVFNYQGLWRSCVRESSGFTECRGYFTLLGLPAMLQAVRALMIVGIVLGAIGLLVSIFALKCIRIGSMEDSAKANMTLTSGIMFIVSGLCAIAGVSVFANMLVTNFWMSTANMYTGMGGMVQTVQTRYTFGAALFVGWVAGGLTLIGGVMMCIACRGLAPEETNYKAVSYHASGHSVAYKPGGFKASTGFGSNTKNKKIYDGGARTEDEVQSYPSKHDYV
Test: FACS titration on 18.2-K562 cells (20 to 0.002 μg/mL), Anti-Human IgG FITC, MFI

- 抗体亲和力: 0.696 µg/mL
B1: 抗体E1(C18-23-3G5-1E1) (antibody, V domains shown)
VH: EVQLQQSGPELVKPGASVKISCQASGYTFTDYYMNWVKQSHVKSLEWIGHINPKNGGTNYNQNFKDKATLTVDKSSSTAYMELRSLTSEDSAVYYCARIYYGNSFVYWGQGTLVTVSA
VL: DIVMTQSPSFLTVTAGEKVTLNCKSSQSLLNSGNQKSYLTWYQQKPGQPPKLLIYWASTRESGVPDRFIGSGSGTDFTLTISSVQAEDLAVYYCQNNYFYPVTFGAGTKLELK
